Here are results for three sequences from article PMC4382993.

The target of this data set is T1, Fur (Escherichia coli O157:H7 (EDL933?)) (UniProt P0A9B1).
T1 sequence: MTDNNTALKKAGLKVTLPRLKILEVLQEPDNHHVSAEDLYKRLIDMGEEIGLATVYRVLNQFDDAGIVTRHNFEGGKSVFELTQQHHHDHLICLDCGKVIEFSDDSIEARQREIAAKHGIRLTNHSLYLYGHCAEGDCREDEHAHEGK
Put plainly: EMSA. Conditions: BirA EMSA: 1 mM Tris-HCl pH 7.5, 0.1 mM EDTA, 0.2 mM DTT, 5 mM MgCl2, 10 mM KCl, 20 uM biotin, 1 mM ATP (DIG Gel Shift Kit); Fur EMSA: Invitrogen E33075 kit ….

As for “AACAGAAGACTGGTTGCTGGAGAGTCCTTCTCGGGTATCGATTGTCGAAGATAAACATATTTATTATTTTCATTTATTGAAAGACTTTTTTACATCATTACCAGATGCTTGCTTTATTGATAGTGAGCAGAGAGAGAATGCATTATTAATGATTGGTAAAGTTATCGACTATAAGGAGGAAATTATTTGATATTAATTACTCAATAATTTTTTTGTTTTCCTGAGAAAAATTATCAAGAGGTATATAGATGGATACATCAAATGCAACATCCGTTGTTAATGTGAGTGCGAGTTCTTC (double strand) [LEE Box1 fragment]”, the binding result is reported as “no binding”.
To “GACATTAAACTTGATCCTGGCGAGGCCAACAATATACAGCTTATTAATGATGCAAACACACCGCATAATAAAATTATAATAGAAAATGAATATATTAGAATAACTTTAGACCCATTAGAGCAAATAAGTATTTTATTGAATTCATTTAAAGATAATTATCTTAGCATTATTCAGGAATGATGATATGTCTCAATTAATGACCATTGGCTCACAGCCAATATTTTTAATTATTGTATTTTTTCTGTTATCATTACTGCCAA (double strand) [LEE Box5 fragment]” belongs “no binding”.
To “GTTGGCGGCATCATTGTATCCGATGAAGATAATTGCTCTAGTTTATCAAATTGCTTATCGAGCAAAGAGGCGAGAGTATGTTGCATTATTGCTTTTGACATGTTTGCGCGATGATTATTATCTTTATGAAAAATTTGGCAAAGATACCACTTCTTATTAGACAGGAAAATACCCATTTGTTTATATTCGTTACTAACGGCCAGGATATTGCAGAGTCTGATAAATGTATCTGTTGGAACCTGACGAAAATCACCACTAAGCTCAATATATAGAACCCAGTAGTTTCCAAAATCG (double strand) [LEE Box4 fragment]” belongs “no binding”.
